Measurements published in PMC9893541 (BMC Biology, 2023).

Legend:
Test in all cases: SPR; BIAcore T-200; chimeric Fc-type 1 receptor coupled to a Series S Protein A chip; ligands 6.25-0.049 nM flowed at 50 uL/min, 300 s association, 1000 s dissociation; 20 mM HEPES pH 7.4, 350 mM NaCl, 0.005 % P-20, 0.5 mg/mL BSA, 3.4 mM EDTA; kinetic 1:1 fit (also a bivalent fit); apparent KD = kd/ka; average of N=2
Details in all cases: both partners purified
GDF5 homodimer = molecular target: T1, GDF5 homodimer (human, UniProt P43026 382-501)
T1 construct: Growth and Differentiation Factor 5 (GDF5), mature domain; Dimer stabilised by an inter-chain disulfide bond; also called homodimeric GDF5; Growth and Differentiation Factor 5
T1 sequence (looked up): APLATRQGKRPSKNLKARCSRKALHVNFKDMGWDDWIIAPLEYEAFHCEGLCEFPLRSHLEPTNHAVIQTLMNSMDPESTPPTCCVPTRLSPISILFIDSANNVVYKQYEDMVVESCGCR

BMP4 homodimer = molecular target: T2, BMP4 homodimer (human, UniProt P12644 293-408)
T2 construct: additional Met residue on the N-terminus of the BMP4 construct; bone morphogenetic protein 4 (BMP4), mature domain; Dimer stabilised by an inter-chain disulfide bond; also called homodimeric BMP4
T2 sequence: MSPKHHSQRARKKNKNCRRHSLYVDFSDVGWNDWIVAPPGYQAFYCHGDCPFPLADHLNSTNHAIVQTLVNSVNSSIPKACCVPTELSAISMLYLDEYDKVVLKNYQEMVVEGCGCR

BMP4/GDF5 heterodimer = molecular target: T3, BMP4/GDF5 heterodimer (human, UniProt P12644 293-408; P43026 382-501)
T3 construct: additional Met residue on the N-terminus of the BMP4 construct; bone morphogenetic protein 4 (BMP4), mature domain; Growth and Differentiation Factor 5 (GDF5), mature domain; Made by people from two natural mature chains; disulfide-linked dimer; also called GDF5/BMP4; copies: 1 + 1
T3 sequence 1: T2 sequence
T3 sequence 2: T1 sequence (looked up)

BMP2/GDF5 heterodimer = molecular target: T4, BMP2/GDF5 heterodimer (human, UniProt P12643 283-396; P43026 382-501)
T4 construct: bone morphogenetic protein 2 (BMP2), mature domain; Growth and Differentiation Factor 5 (GDF5), mature domain; Made by people from two natural mature chains; disulfide-linked dimer; also called GDF5/BMP2; WT heterodimer; copies: 1 + 1

BMP2 homodimer = molecular target: T5, BMP2 homodimer (human, UniProt P12643 283-396)
T5 construct: bone morphogenetic protein 2 (BMP2), mature domain; cDNA received from Hongwen Ma; Dimer stabilised by an inter-chain disulfide bond; Cloned in pET21a; no tag is mentioned; also called homodimeric BMP2; bone morphogenetic protein 2
T5 sequence (P12643 283-396): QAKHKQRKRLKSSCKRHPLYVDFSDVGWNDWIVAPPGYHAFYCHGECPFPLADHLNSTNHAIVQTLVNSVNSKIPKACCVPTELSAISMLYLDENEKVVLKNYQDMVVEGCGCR

T4 sequence (P12643 283-396, one chain of several): as the sequence (P12643 283-396) above

B1: FC-(Alk6)2 (Fc fusion, UniProt O00238 14-126, looked up)
chain: KKEDGESTAPTPRPKVLRCKCHHHCPEDSVNNICSTDGYCFTMIEEDDSGLPVVTSGCLGLEGSDFQCRDTPIPHQRRSIECCTERNECNKDLHPTLPPLKNRDFVDGPIHHR
notes: type 1 receptor Alk6 (BMPR1B) in a recombinant chimeric Fc-receptor; also called chimeric FC-receptor; source: bought: R&D (Cat# 505-PR-100)
Kd (GDF5 homodimer): 0.057 nM
Kd (BMP4 homodimer): 0.113 nM
Kd (BMP4/GDF5 heterodimer): 0.046 nM
Kd (BMP2/GDF5 heterodimer): 0.026 nM
Kd (BMP2 homodimer): 0.102 nM
